{"source": "patent US20180049457A1", "about": "“ENZYMATIC SYNTHESIS OF SOLUBLE GLUCAN FIBER” (E I DU PONT DE NEMOURS AND COMPANY, priority 2014, published 2018)", "data": [{"assay": "GTF activity of strains (PAHBAH assay)", "type": "biochemical", "details": "Experiment Number 1; enzyme expressed in B. subtilis host", "outline": "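Glucosyltransferase (GTF) activity of the bacterial strains was measured with the PAHBAH assay. The enzymes tested were truncated GTF variants produced in a Bacillus subtilis expression host. Measurements were split across three separate experiments, and each activity value is reported together with the experiment it came from because results varied slightly between experiments.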", "units": {"GTF activity of strains: Acitivity": "U/mL"}, "values": [{"molecule": "GTF4336T6: T6 C-terminal truncation of GTF4336, SEQ ID NO: 146, strain SG1309 (protein, T6 C-terminal truncation of GTF4336) INGKQYYVNSDGSVRKNFVFEQDGKSYYFDAETGALATKSQDEFSTEPIKATVDFSSGNQLYKNDDKSLDQLDTFITADAWYRPKSILKDGKTWTASTEADKRPLLMVWWPDKSTQVNYLNYMQNQGLGAGSFSTNSSQESLDQAAKAVQTKIEERIAREGNTNWLRTSIDQFIKTQPGWNSSTENSSYDHLQGGQLLFNNSKGDTGNRTSHANSDYRLLNRTPTNQTGTRKYFKDNSIGGLEFLLANDIDNSNPAVQAEQLNWLHFMMNIGSIMANDPTANFDGLRVDALDNVDADLLQIASDYFKAAYGVDKSEANAIKHLSYLEAWSANDPYYNKDTKGAQLPIDNALRNALTNLLMRDKNTRMQLGDMTAFINSSLNPRGANDKNGERMANYIFTRAHDTEAQTIIQRIIRDRINPNLFGYNFTRDEIKKAFEIYNEDIDKAHKTYASYNLPSVYALMLTNKDSVTRVYYGDLYREDGHYMAKKTPYFDAIDTLLRARIKYVAGGQDMEVKKVGNDGLLTSVRYGKGANNRTDLGTSETRTQGMGVIMTNNYDFRLGSNETVTMNMGRAHRNQLYRPLLLTTKDGIATYFNDSDVPKNLLKRTDWNGNLTFNANDVFGVENVQVSGYLGVWVPVGAKANQDARTQPSNRANSDGQVYKSSAALDSQVMYEAFSNFQAFADDQPELYMNRVLAKNTDLLKAWGVTSVGLPPQYVSSKDGTFLDSTIDNGYAFDDRYDMALSQNNKYGSLEDLLNVLRALHKDGIQAIADWVPDQIYNLPGKEVVNATRVNGYGYHQQGYQIVDQAYVANTRTDGTDYQGKYGGAFLDELKAKYPSIFNRVQISNGKQLPTNEKITKWSAKYFNGTNILGRGINYVLRDDKTNQYFNTSANSQLLPTPLRDTGAITSTQVFQRRGQDVYFLRDNQAVKNEFVQDGNGNWYYFGADGKMTKGAQTINKKDYYFFDNGIQLRNALRRANNGYTYYYGLDGAMVKNAFVDFDDKRKQVRAFTTQG", "GTF activity of strains: Acitivity": 28.9}, {"molecule": "GTF4336T1: T1 C-terminal truncation of GTF4336, SEQ ID NO: 142, strain SG1307 (protein, T1 C-terminal truncation of GTF4336) INGKQYYVNSDGSVRKNFVFEQDGKSYYFDAETGALATKSQDEFSTEPIKATVDFSSGNQLYKNDDKSLDQLDTFITADAWYRPKSILKDGKTWTASTEADKRPLLMVWWPDKSTQVNYLNYMQNQGLGAGSFSTNSSQESLDQAAKAVQTKIEERIAREGNTNWLRTSIDQFIKTQPGWNSSTENSSYDHLQGGQLLFNNSKGDTGNRTSHANSDYRLLNRTPTNQTGTRKYFKDNSIGGLEFLLANDIDNSNPAVQAEQLNWLHFMMNIGSIMANDPTANFDGLRVDALDNVDADLLQIASDYFKAAYGVDKSEANAIKHLSYLEAWSANDPYYNKDTKGAQLPIDNALRNALTNLLMRDKNTRMQLGDMTAFINSSLNPRGANDKNGERMANYIFTRAHDTEAQTIIQRIIRDRINPNLFGYNFTRDEIKKAFEIYNEDIDKAHKTYASYNLPSVYALMLTNKDSVTRVYYGDLYREDGHYMAKKTPYFDAIDTLLRARIKYVAGGQDMEVKKVGNDGLLTSVRYGKGANNRTDLGTSETRTQGMGVIMTNNYDFRLGSNETVTMNMGRAHRNQLYRPLLLTTKDGIATYFNDSDVPKNLLKRTDWNGNLTFNANDVFGVENVQVSGYLGVWVPVGAKANQDARTQPSNRANSDGQVYKSSAALDSQVMYEAFSNFQAFADDQPELYMNRVLAKNTDLLKAWGVTSVGLPPQYVSSKDGTFLDSTIDNGYAFDDRYDMALSQNNKYGSLEDLLNVLRALHKDGIQAIADWVPDQIYNLPGKEVVNATRVNGYGYHQQGYQIVDQAYVANTRTDGTDYQGKYGGAFLDELKAKYPSIFNRVQISNGKQLPTNEKITKWSAKYFNGTNILGRGINYVLRDDKTNQYFNTSANSQLLPTPLRDTGAIT", "GTF activity of strains: Acitivity": 9.4}, {"molecule": "GTF4991T1: T1 C-terminal truncation of GTF4991, SEQ ID NO: 148, strain SG1310 (protein, T1 C-terminal truncation of GTF4491) INGKQYYVNSDGSVRKNFVFEQDGKSYYFDAETGALATKSQDEFSTEPIKATVDFSSGNQLYKNDDKSLDQLDTFITADAWYRPKSILKDGKTWTASTEADKRPLLMVWWPDKSTQVNYLNYMQNQGLGAGSFSTNSSQESLDQAAKAVQTKIEERIAREGNTNWLRTSIDQFIKTQPGWNSSTENSSYDHLQGGQLLFNNSKGDTGNRTSHANSDYRLLNRTPTNQTGTRKYFKDNSIGGLEFLLANDIDNSNPAVQAEQLNWLHFMMNIGSIMANDPTANFDGLRVDALDNVDADLLQIASDYFKAAYGVDKSEANAIKHLSYLEAWSANDPYYNKDTKGAQLPIDNALRNALTNLLMRDKNTRMQLGDMTAFINSSLNPRGANDKNGERMANYIFTRAHDTEAQTIIQRIIRDRINPNLFGYNFTRDEIKKAFEIYNEDIDKAHKTYASYNLPSVYALMLTNKDSVTRVYYGDLYREDGHYMAKKTPYFDAIDTLLRARIKYVAGGQDMEVKKVGNDGLLTSVRYGKGANNRTDLGTSETRTQGMGVIMTNNYDFRLGSNETVTMNMGRAHRNQLYRPLLLTTKDGIATYLNDSDVPKNLLKRTDWNGNLTFNANDVFGVENVQVSGYLGVWVPYGAKANQDARTQPSNRANSDGQVYKSSAALDSQVMYEAFSNFQAFADDQPELYMNRVLAKNTDLLKAWGITSVGLPPQYVSSKDGTFLDSIIDNGYAFDDRYDMALSQNNKYGSLEDLLNVLRALHKDGIQAIADWVPDQIYNLPGKEVVNATRVNGYGYHQQGYQIVDQAYVANTRTDGTDYQGKYGGAFLDELKAKYPSIFNRVQISNGKQLPTNEKITKWSAKYFNGTNILGRGINFVLRDDKTNQYFNTSANSQLLPTPLRDTGAIT", "GTF activity of strains: Acitivity": 23.1}, {"molecule": "GTF4336T2: T2 C-terminal truncation of GTF4336, SEQ ID NO: 144, strain SG1308 (protein, T2 C-terminal truncation of GTF4336) INGKQYYVNSDGSVRKNFVFEQDGKSYYFDAETGALATKSQDEFSTEPIKATVDFSSGNQLYKNDDKSLDQLDTFITADAWYRPKSILKDGKTWTASTEADKRPLLMVWWPDKSTQVNYLNYMQNQGLGAGSFSTNSSQESLDQAAKAVQTKIEERIAREGNTNWLRTSIDQFIKTQPGWNSSTENSSYDHLQGGQLLFNNSKGDTGNRTSHANSDYRLLNRTPTNQTGTRKYFKDNSIGGLEFLLANDIDNSNPAVQAEQLNWLHFMMNIGSIMANDPTANFDGLRVDALDNVDADLLQIASDYFKAAYGVDKSEANAIKHLSYLEAWSANDPYYNKDTKGAQLPIDNALRNALTNLLMRDKNTRMQLGDMTAFINSSLNPRGANDKNGERMANYIFTRAHDTEAQTIIQRIIRDRINPNLFGYNFTRDEIKKAFEIYNEDIDKAHKTYASYNLPSVYALMLTNKDSVTRVYYGDLYREDGHYMAKKTPYFDAIDTLLRARIKYVAGGQDMEVKKVGNDGLLTSVRYGKGANNRTDLGTSETRTQGMGVIMTNNYDFRLGSNETVTMNMGRAHRNQLYRPLLLTTKDGIATYFNDSDVPKNLLKRTDWNGNLTFNANDVFGVENVQVSGYLGVWVPVGAKANQDARTQPSNRANSDGQVYKSSAALDSQVMYEAFSNFQAFADDQPELYMNRVLAKNTDLLKAWGVTSVGLPPQYVSSKDGTFLDSTIDNGYAFDDRYDMALSQNNKYGSLEDLLNVLRALHKDGIQAIADWVPDQIYNLPGKEVVNATRVNGYGYHQQGYQIVDQAYVANTRTDGTDYQGKYGGAFLDELKAKYPSIFNRVQISNGKQLPTNEKITKWSAKYFNGTNILGRGINYVLRDDKTNQYFNTSANSQLLPTPLRDTGAITSTQVFQRRGQDVYFLRDNQAVKNEFVQDGNGNWYYFGADG", "GTF activity of strains: Acitivity": 11.5}]}]}
